Where a chain is given by its changes, count along the chain named. In names and notes the source's numbering stands.
T1: Human v6-peptide (human, N-terminal biotin)
T1 construct: Bachem #4108947, 43 amino acids, synthetic; also called Hm v6-peptide; hm v6-peptide
T1 peptide: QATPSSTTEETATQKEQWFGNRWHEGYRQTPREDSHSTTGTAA

T2: Cynomolgus v6-peptide (cynomolgus, UniProt A0A2K5VJE0 387-429, N-terminal biotin)
T2 construct: domain: v6-region (43 amino acids); also called Cm v6-peptide; cm v6-peptide
T2 peptide: T1 peptide with T3I, R28L

B1: AL-MN114-132 IgG1 LALA (antibody, V domains shown)
VH: EVQLLESGGGLVQPGGSLRLSCAASGFTFSSYAMSWVRQAPGKGLEWVSAISGGGSSTYYADSVKGRFTISRDNSKNTLYLQMNSLRAEDTAVYYCARHYYSDSDYRSSAAMDYWGQGTLVTVSS
VL: DIQMTQSPSSLSASVGDRVTITCRASQSISSYLNWYQQKPGKAPKLLIYAASSLQSGVPSRFSGSGSGTDFTLTISSLQPEDFATYYCQQDLYLLTFGQGTKLEIK
notes: item 20 iii) gives heavy 77 / light 96 without naming the format
B2: AL-MN114-132 IgG1 LALA IAHA (antibody, V domains shown)
VH: B1 VH
VL: B1 VL
notes: Human IgG1 LALA IAHA, kappa
B3: AL-MN114-71 IgG1 LALA IAHA (antibody, V domains shown)
VH: B1 VH with T28S, S30R, Y32F, Y59F
VL: B1 VL with S53T
notes: Human IgG1 LALA IAHA, kappa
B4: AL-MN114-465 IgG1 LALA IAHA (antibody, V domains shown)
VH: B1 VH with T28S, S30G, G53A, Y59F
VL: B1 VL with A50T
notes: Human IgG1 LALA IAHA, kappa
B5: U-MN114-19 IgG1 LALA (antibody, V domains shown)
VH: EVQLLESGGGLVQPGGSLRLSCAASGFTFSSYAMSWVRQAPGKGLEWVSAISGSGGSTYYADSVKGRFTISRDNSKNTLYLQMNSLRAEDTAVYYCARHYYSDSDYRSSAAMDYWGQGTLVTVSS
VL: B1 VL
notes: item 20 xxi) gives heavy 149 / light 150 without naming the format; also called parental clone U-MN114-19
B6: AL-MN114-444 IgG1 LALA IAHA (antibody, V domains shown)
VH: B1 VH with S30R, Y32F, Y59F
VL: B1 VL with S30G, A50S
notes: Human IgG1 LALA IAHA, kappa
B7: U-MN114-19 IgG1 LALA IAHA (antibody, V domains shown)
VH: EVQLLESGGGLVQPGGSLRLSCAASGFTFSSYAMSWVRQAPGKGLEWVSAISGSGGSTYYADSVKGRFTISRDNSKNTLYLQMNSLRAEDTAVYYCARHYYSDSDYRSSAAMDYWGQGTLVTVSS
VL: B1 VL
notes: also called parental clone U-MN114-19
B8: U-MN114-19 IgG4 S228P (antibody, V domains shown)
VH: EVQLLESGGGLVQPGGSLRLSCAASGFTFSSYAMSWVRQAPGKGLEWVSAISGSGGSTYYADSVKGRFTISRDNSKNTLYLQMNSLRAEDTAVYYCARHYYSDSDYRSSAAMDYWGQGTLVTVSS
VL: B1 VL
notes: Human IgG4 S228P (EU), kappa; also called MN19; parental clone

What follows are binders tested against T3, Human CD44 iso6-Fc (human, UniProt P16070-6 21-606, limits assumed, chemically biotinylated in the form called Bio-CD44) (assay: SPR SCK, antibody immobilised, CD44-Fc injected).
T3 construct: Negative control antigen, ProMab, HKB11 cells; also called Bio-CD44; bio-CD44
T3 sequence (P16070 other isoform, or with tags, fused parts or gaps limits assumed): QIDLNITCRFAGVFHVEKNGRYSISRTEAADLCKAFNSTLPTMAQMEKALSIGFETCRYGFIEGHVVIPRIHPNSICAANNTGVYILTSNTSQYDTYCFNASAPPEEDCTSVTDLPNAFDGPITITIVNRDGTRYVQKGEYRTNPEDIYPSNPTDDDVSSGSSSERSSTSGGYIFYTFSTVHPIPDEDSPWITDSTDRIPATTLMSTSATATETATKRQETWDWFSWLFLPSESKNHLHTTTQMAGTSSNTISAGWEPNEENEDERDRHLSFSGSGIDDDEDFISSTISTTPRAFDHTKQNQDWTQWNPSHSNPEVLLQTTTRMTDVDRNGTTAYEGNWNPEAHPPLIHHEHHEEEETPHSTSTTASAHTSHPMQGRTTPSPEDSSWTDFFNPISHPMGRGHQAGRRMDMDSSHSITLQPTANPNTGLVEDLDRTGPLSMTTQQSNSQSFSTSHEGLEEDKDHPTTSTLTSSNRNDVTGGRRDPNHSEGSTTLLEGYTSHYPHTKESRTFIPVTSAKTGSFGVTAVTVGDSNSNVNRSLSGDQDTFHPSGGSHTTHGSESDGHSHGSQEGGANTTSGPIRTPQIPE
Experimental: (§1) The SPR measurements were performed on a BIAcore T200 instrument (Cytiva) using a SCK approach. Each antibody was directly immobilized onto a separate surface of a CM5 series S sensor chip using EDC/NHS amine coupling chemistry according to manufacturer's recommendations. Immobilization levels were set to 1500 RU. All experiments were performed at 25° C. in running buffer (HBS, 0.05% Tween20, pH 7.5). A three-fold dilution series of CD44v6 and negative control CD44, comprised of five concentrations ranging between 10-0.12 nM, were prepared in running buffer. A four-fold dilution series of human, cynomolgus and rabbit v6-peptide, respectively, comprised of five concentrations ranging between 100-0.39 nM, were also prepared in running buffer. Each dilution series were sequentially injected, starting with the lowest concentration first, over an immobilized antibody clone and chip surfaces were regenerated with 10 mM glycin-HCl, pH 2.1. See table 10 for specifications of antigens used in SPR measurements. By subtracting the response curve of a reference surface (an activated and deactivated chip surface) and to a blank run (running buffer injected instead of antigen) response curve sensorgrams were obtained. Data was analyzed using the Biacore T200 Evaluation 3.1 software and a 1:1 Langmuir binding model.

| Binder | binding result |
| --- | --- |
| B1 | no binding (tested: 10 nM highest CD44 concentration) |
| B2 | no binding (tested: 10 nM highest CD44 concentration) |
| B3 | no binding (tested: 10 nM highest CD44 concentration) |
| B4 | no binding (tested: 10 nM highest CD44 concentration) |
| B5 | no binding (tested: 10 nM highest CD44 concentration) |
| B6 | no binding (tested: 10 nM highest CD44 concentration) |
| B7 | no binding (tested: 10 nM highest CD44 concentration) |

Target: T1, Human v6-peptide
Experiment: SPR SCK, biotin-peptide on SA chip, antibody injected
Experimental: (§2) For kinetic measurements of human v6-peptide, a streptavidin (SA) sensor chip was used to immobilize the v6-peptide at approximately 20 RU. A five-fold dilution series of each antibody, consisting of five concentrations ranging between 50 nM-0.08 nM, were prepared in running buffer and sequentially injected over the chip surfaces.
(§3) All experiments were performed at 25° C. in running buffer (HBS supplemented with 0.05% Tween20, pH 7.5) and the chip surfaces were regenerated with 10 mM glycine-HCl, pH 2.1. By subtracting the response curve of a reference surface (an α-human Kappa antibody immobilized surface or a streptavidin immobilized surface) and to a blank run (running buffer injected instead of antigen or antibody) response curve sensorgrams were obtained. Data was analyzed using the Biacore T200 Evaluation 3.1 software and a 1:1 Langmuir binding model.

| koff | kon | Binder |
| --- | --- | --- |
| 0.00018 s⁻¹ | 730000 M⁻¹ s⁻¹ | B8 |

These binders were tested against T4, Human CD44v6 iso4-Fc (human, UniProt P16070-4 21-606, limits assumed, chemically biotinylated in the form called Bio-CD44v6) (assay: SPR SCK, antibody immobilised, CD44v6-Fc injected; apparent KD).
T4 construct: Custom ordered from ProMab, produced in HKB11 cells; The biotinylated and the plain form are kept as one molecule; also called Bio-CD44v6; bio-CD44v6
T4 sequence (P16070 other isoform, or with tags, fused parts or gaps limits assumed): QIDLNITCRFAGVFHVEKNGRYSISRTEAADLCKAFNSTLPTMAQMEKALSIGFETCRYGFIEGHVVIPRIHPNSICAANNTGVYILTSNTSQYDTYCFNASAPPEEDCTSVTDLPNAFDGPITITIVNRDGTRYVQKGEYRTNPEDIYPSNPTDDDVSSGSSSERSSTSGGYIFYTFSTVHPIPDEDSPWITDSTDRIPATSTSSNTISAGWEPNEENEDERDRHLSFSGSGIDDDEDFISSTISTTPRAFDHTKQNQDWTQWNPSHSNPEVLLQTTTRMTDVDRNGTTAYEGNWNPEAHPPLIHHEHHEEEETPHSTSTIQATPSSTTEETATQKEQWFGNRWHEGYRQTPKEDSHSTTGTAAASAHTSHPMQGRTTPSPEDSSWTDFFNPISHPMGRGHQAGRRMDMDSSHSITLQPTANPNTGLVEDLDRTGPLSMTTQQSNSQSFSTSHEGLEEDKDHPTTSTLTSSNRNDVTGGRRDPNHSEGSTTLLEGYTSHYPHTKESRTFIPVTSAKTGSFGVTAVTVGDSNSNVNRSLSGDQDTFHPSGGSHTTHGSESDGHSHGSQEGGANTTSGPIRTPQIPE
Experimental: as §1

| Kd | Binder |
| --- | --- |
| 0.062 nM | B1 |
| 1.5 nM | B2 |
| 1.1 nM | B3 |
| 1.6 nM | B4 |
| 1.2 nM | B5 |
| 1 nM | B6 |
| 0.05 nM | B7 |

These binders were tested against T4, Human CD44v6 iso4-Fc (assay: SPR SCK, antibody captured via anti-kappa, CD44v6-Fc injected).
Experimental: (§4) Kinetic measurements were performed on a BIAcore T200 instrument (Cytiva) using a SCK approach. An α-human Kappa antibody (GE Healthcare #28958325), functioning as a capture ligand, was immobilized onto all four surfaces of a CM5-S amine sensor chip according to manufacturer's recommendations. Antibodies were injected and captured at equal response units (RU). A four-fold dilution series of CD44v6, consisting of five concentrations ranging between 80 nM-0.3 nM, were prepared in running buffer and sequentially injected over the chip surfaces. Single injections of 100 nM CD44 (negative control) was also performed.
as §3

| koff | kon | Binder |
| --- | --- | --- |
| 0.001 s⁻¹ | 320000 M⁻¹ s⁻¹ | B8 |

The binders below were run against T4, Human CD44v6 iso4-Fc (assay: SPR SCK, antibody immobilised, CD44v6-Fc injected).
Experimental: as §1

| koff | kon | Binder |
| --- | --- | --- |
| 0.00012 s⁻¹ | 1.9e+06 M⁻¹ s⁻¹ | B1 |
| 0.00021 s⁻¹ | 140000 M⁻¹ s⁻¹ | B2 |
| 0.00026 s⁻¹ | 230000 M⁻¹ s⁻¹ | B3 |
| 0.00027 s⁻¹ | 170000 M⁻¹ s⁻¹ | B4 |
| 0.00015 s⁻¹ | 130000 M⁻¹ s⁻¹ | B5 |
| 0.00032 s⁻¹ | 320000 M⁻¹ s⁻¹ | B6 |
| 0.00012 s⁻¹ | 2.5e+06 M⁻¹ s⁻¹ | B7 |

Target: T1, Human v6-peptide
Experiment: SPR SCK, biotin-peptide on SA chip, antibody injected; apparent KD
Experimental: as §2, §3

| Kd | Binder |
| --- | --- |
| 0.28 nM | B8 |

Each binder was assayed against T4, Human CD44v6 iso4-Fc (assay: SPR SCK, antibody captured via anti-kappa, CD44v6-Fc injected; apparent KD).
Experimental: as §4, §3

| Kd | Binder |
| --- | --- |
| 3.3 nM | B8 |

Target: T2, Cynomolgus v6-peptide
Experiment: SPR SCK, antibody immobilised, peptide injected
Experimental: as §1

| Kd | koff | kon | Binder |
| --- | --- | --- | --- |
| 7.3 nM | 0.0096 s⁻¹ | 1.3e+06 M⁻¹ s⁻¹ | B1 |
| 17 nM | 0.014 s⁻¹ | 860000 M⁻¹ s⁻¹ | B2 |
| 13 nM | 0.0095 s⁻¹ | 710000 M⁻¹ s⁻¹ | B3 |
| 13 nM | 0.0085 s⁻¹ | 680000 M⁻¹ s⁻¹ | B4 |
| 44 nM | 0.046 s⁻¹ | 1e+06 M⁻¹ s⁻¹ | B5 |
| 11 nM | 0.0079 s⁻¹ | 720000 M⁻¹ s⁻¹ | B6 |
| 20 nM | 0.034 s⁻¹ | 1.7e+06 M⁻¹ s⁻¹ | B7 |

Target: T1, Human v6-peptide
Experiment: SPR SCK, antibody immobilised, peptide injected
Experimental: as §1

| Kd | koff | kon | Binder |
| --- | --- | --- | --- |
| 12 nM | 0.013 s⁻¹ | 1.1e+06 M⁻¹ s⁻¹ | B1 |
| 22 nM | 0.016 s⁻¹ | 730000 M⁻¹ s⁻¹ | B2 |
| 17 nM | 0.011 s⁻¹ | 620000 M⁻¹ s⁻¹ | B3 |
| 14 nM | 0.0093 s⁻¹ | 680000 M⁻¹ s⁻¹ | B4 |
| 58 nM | 0.049 s⁻¹ | 830000 M⁻¹ s⁻¹ | B5 |
| 12 nM | 0.0083 s⁻¹ | 710000 M⁻¹ s⁻¹ | B6 |
| 17 nM | 0.019 s⁻¹ | 1.1e+06 M⁻¹ s⁻¹ | B7 |

Each binder was assayed against T5, Rabbit v6-peptide (rabbit) (assay: SPR SCK, antibody immobilised, peptide injected).
T5 construct: domain: v6-region (43 amino acids); also called Rb v6-peptide; rb v6-peptide
Experimental: as §1

| Kd | koff | kon | Binder |
| --- | --- | --- | --- |
| 13 nM | 0.023 s⁻¹ | 1.7e+06 M⁻¹ s⁻¹ | B1 |
| 37 nM | 0.037 s⁻¹ | 990000 M⁻¹ s⁻¹ | B2 |
| 22 nM | 0.016 s⁻¹ | 710000 M⁻¹ s⁻¹ | B3 |
| 19 nM | 0.015 s⁻¹ | 830000 M⁻¹ s⁻¹ | B4 |
| 79 nM | 0.15 s⁻¹ | 2e+06 M⁻¹ s⁻¹ | B5 |
| 15 nM | 0.012 s⁻¹ | 820000 M⁻¹ s⁻¹ | B6 |
| 31 nM | 0.067 s⁻¹ | 2.2e+06 M⁻¹ s⁻¹ | B7 |

From US20250340662A1 (AKIRAM THERAPEUTICS, published 2025)
